Patent US20240219403

Biological target: T1, NF1 GAP-related domain (GRD) (UniProt P21359)
T1 sequence: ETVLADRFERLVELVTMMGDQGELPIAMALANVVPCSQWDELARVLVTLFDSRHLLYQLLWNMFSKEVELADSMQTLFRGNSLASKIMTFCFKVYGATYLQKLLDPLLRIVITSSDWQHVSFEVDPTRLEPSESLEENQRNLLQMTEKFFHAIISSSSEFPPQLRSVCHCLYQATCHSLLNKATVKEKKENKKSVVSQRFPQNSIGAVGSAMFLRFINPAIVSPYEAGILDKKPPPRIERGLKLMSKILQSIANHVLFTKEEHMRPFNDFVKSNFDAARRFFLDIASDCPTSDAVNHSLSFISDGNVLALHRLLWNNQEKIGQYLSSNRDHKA

Question: How did the “GTP hydrolysis by KRAS^WT” value turn out when purified KRAS^WT loaded with GTP was run?
Answer: conventional RAS-GAPs (such as NF1), which potently enhance hydrolysis by KRAS^WT (FIG. 3B: NF1>>RGS3)
